Test results: US20210347867A1 (GEORG AUGUST UNIVERSIT T G TTINGEN STIFTUNG FFENTLICHEN …, published 2021)
Changes are numbered by the printed parent chain. Names and notes keep the numbering of the source. Where two headings read alike, the source gives them in different places. Blank lines part the entries; values can stand above or below the binder they belong to.

Legend:
amyloid peptide AβpE3-42 [1] = target: T1, amyloid peptide AβpE3-42 (UniProt P05067 674-713, N-terminal pyroglutamate (pE) at Aβ position 3); assay: ELISA, plate coated with AβpE3-42 from California peptides (Cal Hu), antibody titrated, A650nm
T1 construct: domain: AβpE3-42; Bought synthetic peptide; also called AβpGlu3-42; Aβ(Glp3)3-42

amyloid peptide AβpE3-42 [2] = target: T1, amyloid peptide AβpE3-42; assay: ELISA, plate coated with AβpE3-42 from PSL, antibody titrated, A650nm
Description: (§1) Each well of a […] MaxiSorp plate (Nunc) was coated with 50 μL aliquots of 200 ng/mL of 1-42, pE3-42 or 4-42 amyloid peptides in PBS and incubated overnight at 4° C. The wells were washed 3× with PBS-T (0.1% Tween20) and blocked with 150 μL of 5% milk in PBS/0.05% Tween20 per well. The wells were then incubated at RT with shaking for 1 hour and washed 3× with PBS-T (0.1% Tween20). 50 μl of primary antibody serially diluted in 1% milk PBS/0.05% Tween20 was added to the wells of the assay plate using a 3-fold dilution series starting from ˜100 μg/mL. The incubation and washing step was then repeated. Anti-human kappa chain HRP (Sigma A7164-1 mL) was diluted 4,000-fold in PBS/1% milk/0.05% Tween20 and 50 μl added to each well. The incubation and washing step was repeated and then 75 μL of K-Blue substrate (Neogen) was added per well and incubated for 5-10 minutes at RT. The reaction was stopped by adding 50 μl of RED STOP solution (Neogen) to each well and the optical density was read at 650 nm.

amyloid peptide Aβ4-42 [3] = target: T2, amyloid peptide Aβ4-42 (UniProt P05067 675-713); assay: ELISA, plate coated with Aβ4-42 from PSL, antibody titrated, A650nm
T2 construct: domain: Aβ4-42; Bought synthetic peptide; also called Anaspec Aβ4-42

amyloid peptide AβpE3-42 [4] = target: T1, amyloid peptide AβpE3-42; assay: ELISA, plate coated with AβpE3-42 from PSL, antibody titrated, A650nm; remark: listed apart in the source
amyloid peptide AβpE3-42 [5] = target: T1, amyloid peptide AβpE3-42; assay: ELISA, plate coated with AβpE3-42, antibody titrated, A650nm
Description: as §1

amyloid peptide AβpE3-42 [6] = target: T1, amyloid peptide AβpE3-42; assay: as above; remark: listed apart in the source
Description: as §1

amyloid peptide AβpE3-42 [7] = target: T1, amyloid peptide AβpE3-42; assay: ELISA, plate coated with AβpE3-42 (target by legend paragraph 24), antibody titrated, A650nm
Description: as §1

amyloid peptide Aβ4-42 [8] = target: T2, amyloid peptide Aβ4-42; assay: SPR, Biacore T200; SPR (Biacore T200), apparent KD comparable to the mouse antibody
amyloid peptide Aβ1-42 = target: T3, amyloid peptide Aβ1-42 (UniProt P05067 672-713); assay: ELISA, plate coated with Aβ1-42 (target by legend paragraph 23), antibody titrated, signal as % Max; the value lies beyond the highest concentration shown
T3 construct: domain: Aβ1-42; Bought synthetic peptide; also called amyloid full length peptide Aβ1-42

amyloid peptide AβpE3-42 [9] = target: T1, amyloid peptide AβpE3-42; assay: ELISA, plate coated with AβpE3-42, antibody titrated, signal as % Max
Description: as §1

amyloid peptide Aβ4-42 [10] = target: T2, amyloid peptide Aβ4-42; assay: ELISA, plate coated with Anaspec Aβ4-42, antibody titrated after incubation in PBS or in mouse, human or cynomolgus serum, blank-subtracted OD650
amyloid peptide AβpE3-42 [11] = target: T1, amyloid peptide AβpE3-42; assay: ELISA, plate coated with AβpE3-42 (PSL), antibody titrated, blank-subtracted OD650
Description: as §1

amyloid peptide AβpE3-42 [12] = target: T1, amyloid peptide AβpE3-42; assay: ELISA, plate coated with AβpE3-42, antibody titrated, blank-subtracted OD650
Description: as §1
Therefore, F67Y, Y68N, I39W and an additional variant that combined F67Y and Y68N were generated (Table 2) and binding to Aβ1-42, AβpE3-42 and 4-42 was investigated. […] Five additional variants of the heavy chain were generated with the following mutations, S53M, S53H, R100H, L103R and L103H (Table 4b). In addition, five variants of the light chain were also generated RKF (N92W), RKG (N92Y), RKH (N92H), RKI (L94R) and RIC (L94H).

amyloid peptide Aβ4-42 [13] = target: T2, amyloid peptide Aβ4-42; assay: ELISA, plate coated with Anaspec Aβ4-42, antibody titrated after incubation in PBS or in mouse, human or cynomolgus serum, blank-subtracted OD650 [continued]
amyloid peptide AβpE3-42 [14] = target: T1, amyloid peptide AβpE3-42; assay: assay not given; binding to Aβ1-42, AβpE3-42 and 4-42 was investigated
amyloid peptide Aβ4-42 [15] = target: T2, amyloid peptide Aβ4-42; assay: as above

T2 sequence (P05067 675-713 limits assumed): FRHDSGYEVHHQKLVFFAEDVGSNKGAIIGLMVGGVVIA
T1 sequence (P05067 674-713 limits assumed): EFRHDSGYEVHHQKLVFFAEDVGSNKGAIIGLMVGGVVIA
T3 sequence (P05067 672-713 limits assumed): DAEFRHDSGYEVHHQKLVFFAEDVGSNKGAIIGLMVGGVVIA

B1: murine NT4X-167 antibody (antibody, V domains shown)
VH: QVQLKQSGPGLVQPSQSLSITCTVSGFSLTSYGIHWVRQSPGKGLEWLGVMWSGGITDFYAAFISRLSISRDISKSQVFFKMNSLQADDTAIYYCARGSRYALDYWGQGTSVSVSS
VL: DIQMTQTTSSLSASLGDRVTISCRASQDISNYLNWYQQKPDGTVKLLIYYTSRLHSGVPSRFSGSGSGTDYSLTISNLEQEDIATYFCQQGNTLPPTFGGGTKLEIK
notes: Mouse hybridoma antibody; also called original mouse NT4X antibody
- EC50 (amyloid peptide AβpE3-42 [1]): 15.7 nM
- EC50 (amyloid peptide AβpE3-42 [2]): 24.9 nM
- binding result (amyloid peptide Aβ4-42 [3]): binds
- EC50 (amyloid peptide AβpE3-42 [4]): 24.9 nM
- EC50 (read off the curve) (amyloid peptide AβpE3-42 [5]): ~0.5 µg/mL
- EC50 (read off the curve) (amyloid peptide AβpE3-42 [6]): ~0.5 µg/mL
- EC50 (amyloid peptide AβpE3-42 [7]): 2.4 µg/mL

B2: chimeric NT4X-167 antibody (antibody, V domains shown)
VH: B1 VH
VL: B1 VL
notes: also called chimeric positive control antibody
- EC50 (amyloid peptide AβpE3-42 [2]): 47.1 nM
- binding result (amyloid peptide Aβ4-42 [8]): binds
- EC50 (amyloid peptide Aβ1-42): 214 µg/mL
- EC50 (amyloid peptide AβpE3-42 [9]): 0.118 µg/mL
- EC50 (read off the curve) (amyloid peptide AβpE3-42 [5]): ~0.07 µg/mL
- EC50 (read off the curve) (amyloid peptide AβpE3-42 [6]): ~0.07 µg/mL
- EC50 (amyloid peptide AβpE3-42 [7]): 0.227 µg/mL

B3: humanized NT4X-167 RHS/RKA (antibody, mouse IgG1, V domains shown)
VH: QVQLQESGPGLVKPSETLSLTCTVSGFSLSSYGIHWIRQPPGKGLEWIGVMWSGGITDFYAAFISRVTISRDTSKNQVSLKLSSVTAADTAVYYCARGSRYALDYWGQGTLVTVSS
VL: DIQMTQSPSSLSASVGDRVTITCRASQDISNYLNWYQQKPGKAPKLLIYYTSRLHSGVPSRFSGSGSGTDFTLTISSLQPEDFATYYCQQGNTLPPTFGGGTKLEIK
notes: also called SA; RHS/KA
- binding result (amyloid peptide Aβ4-42 [10]): binds
- binding result (amyloid peptide AβpE3-42 [11]): binds

B6: (rcNT4X_S8A) R1 (antibody, V domains shown)
VH: B3 VH with H35S, D58N, A61P, A62S, F63L, I64K
VL: B3 VL
notes: also called RHS8/RKA
- binding result (amyloid peptide AβpE3-42 [12]): no binding (tested: about 120 ug/ml)

B7: humanized NT4X-167 RHO/RKA (antibody, mouse IgG1, V domains shown)
VH: B3 VH with S30T, I48L, L82M
VL: B3 VL
- binding result (amyloid peptide AβpE3-42 [6]): binds

B8: humanized NT4X-167 RHP/RKA (antibody, mouse IgG1, V domains shown)
VH: B3 VH with S30T, I48L, V67L, R71V, L82M
VL: B3 VL
- binding result (amyloid peptide AβpE3-42 [6]): binds

B10: humanized NT4X-167 RHN/RKA (antibody, mouse IgG1, V domains shown)
VH: B3 VH with S30T, V67L, L82M
VL: B3 VL
- binding result (amyloid peptide AβpE3-42 [6]): binds

B13: humanized NT4X-167 RHM/RKA (antibody, mouse IgG1, V domains shown)
VH: B3 VH with I48L, V67L, L82M
VL: B3 VL
- binding result (amyloid peptide AβpE3-42 [6]): binds

B16: humanized NT4X-167 RHQ/RKA (antibody, mouse IgG1, V domains shown)
VH: B3 VH with S30T, I48L, V67L, V78F, L82M
VL: B3 VL
- binding result (amyloid peptide AβpE3-42 [6]): binds

B17: humanized NT4X-167 RHK/RKA (antibody, mouse IgG1, V domains shown)
VH: B3 VH with F27G, S30T, I48L, V67L, L82M
VL: B3 VL
- binding result (amyloid peptide AβpE3-42 [6]): binds

B18: humanized NT4X-167 RHR/RKA (antibody, mouse IgG1, V domains shown)
VH: B3 VH with S30T, I48L, V67L
VL: B3 VL
- binding result (amyloid peptide AβpE3-42 [6]): binds

Next, values leading:

- binding result (amyloid peptide AβpE3-42 [12]): binds
- binding result (amyloid peptide Aβ4-42 [13]): binds
B4: humanized NT4X-167 RHS7/RKA (antibody, mouse IgG1, V domains shown)
VH: B3 VH with D58N, A61P, A62S, F63L, I64K
VL: B3 VL
notes: also called S7A

- binding result (amyloid peptide AβpE3-42 [14]): binds
- binding result (amyloid peptide Aβ4-42 [15]): binds
B5: humanized NT4X-167 RHS71/RKA (antibody, V domains shown)
VH: B3 VH with D58N, F59Y, A61P, A62S, F63L, I64K
VL: B3 VL
notes: also called RHS71 (F67Y) with RKA

- EC50 (amyloid peptide AβpE3-42 [9]): 0.377 µg/mL
- EC50 (amyloid peptide AβpE3-42 [7]): 2.74 µg/mL
B9: humanized NT4X-167 RHB/RKB (antibody, mouse IgG1, V domains shown)
VH: B3 VH with S30T, I48L, V67L, L82M
VL: B3 VL with K42G, F71Y, Y87F
notes: also called HB/KB

- binding result (amyloid peptide AβpE3-42 [12]): no binding (tested: about 120 ug/ml)
B11: (rcNT4X_S6A) R1 (antibody, V domains shown)
VH: B3 VH with H35S
VL: B3 VL
notes: also called RHS6/RKA

- binding result (amyloid peptide AβpE3-42 [6]): binds
B12: humanized NT4X-167 RHL/RKA (antibody, mouse IgG1, V domains shown)
VH: B3 VH with L29I, S30T, I48L, V67L, L82M
VL: B3 VL

- binding result (amyloid peptide AβpE3-42 [11]): binds
B14: humanized NT4X-167 RHT/RKA (antibody, mouse IgG1, V domains shown)
VH: B3 VH with S30T
VL: B3 VL
notes: also called TA

- EC50 (amyloid peptide AβpE3-42 [9]): 0.341 µg/mL
- EC50 (amyloid peptide AβpE3-42 [7]): 3.86 µg/mL
B15: humanized NT4X-167 RHB/RKA (antibody, mouse IgG1, V domains shown)
VH: B3 VH with S30T, I48L, V67L, L82M
VL: B3 VL
notes: also called BA
